T1: GST-Pdcd4 (full-length human Pdcd4 fused to GST) (human, UniProt Q53EL6 1-469)
T1 construct: programmed cell death 4 (Pdcd4), human, full length; also called GST-Pdcd4-wt; pGex-6P2-hPdcd4wt; source: purified
T1 sequence (looked up): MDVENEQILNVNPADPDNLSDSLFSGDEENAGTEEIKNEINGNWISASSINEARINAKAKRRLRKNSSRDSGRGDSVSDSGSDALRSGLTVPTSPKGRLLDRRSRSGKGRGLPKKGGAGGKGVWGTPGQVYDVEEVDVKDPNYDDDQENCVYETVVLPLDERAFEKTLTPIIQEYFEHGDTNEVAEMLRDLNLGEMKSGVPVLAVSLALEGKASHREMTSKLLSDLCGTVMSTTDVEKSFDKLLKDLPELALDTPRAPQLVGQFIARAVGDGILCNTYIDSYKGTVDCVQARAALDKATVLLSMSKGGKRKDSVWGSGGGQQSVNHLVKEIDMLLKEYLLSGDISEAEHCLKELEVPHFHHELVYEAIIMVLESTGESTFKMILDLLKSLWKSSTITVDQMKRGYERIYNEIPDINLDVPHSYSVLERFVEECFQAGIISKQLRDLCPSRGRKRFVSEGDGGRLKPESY

B1: GST-Pdcd4-RBDstop (only the N-terminal RNA-binding domain of human Pdcd4) (domain or fragment, UniProt Q53EL6 1-154, looked up)
chain: MDVENEQILNVNPADPDNLSDSLFSGDEENAGTEEIKNEINGNWISASSINEARINAKAKRRLRKNSSRDSGRGDSVSDSGSDALRSGLTVPTSPKGRLLDRRSRSGKGRGLPKKGGAGGKGVWGTPGQVYDVEEVDVKDPNYDDDQENCVYET
notes: translation stop codon introduced at amino acid position 155; The last residue 154 follows from the stop codon at position 155; also called pGex-6P2-hPdcd4-RBDstop; source: purified
B2: mouse His-PABP-RRM1–4 (amino acids 1–375) (domain or fragment, UniProt P29341 1-375, looked up)
chain: MNPSAPSYPMASLYVGDLHPDVTEAMLYEKFSPAGPILSIRVCRDMITRRSLGYAYVNFQQPADAERALDTMNFDVIKGKPVRIMWSQRDPSLRKSGVGNIFIKNLDKSIDNKALYDTFSAFGNILSCKVVCDENGSKGYGFVHFETQEAAERAIEKMNGMLLNDRKVFVGRFKSRKEREAELGARAKEFTNVYIKNFGEDMDDERLKELFGKFGPALSVKVMTDESGKSKGFGFVSFERHEDAQKAVDEMNGKELNGKQIYVGRAQKKVERQTELKRKFEQMKQDRITRYQGVNLYVKNLDDGIDDERLRKEFSPFGTITSAKVMMEGGRSKGFGFVCFSSPEEATKAVTEMNGRIVATKPLYVALAQRKEERQ
notes: Vector was a gift from Lorna Waters; source: bacterially expressed, purified (Ni-NTA)

Experiments:
[1] = target: B2; assay: pull-down; GST fusion protein-loaded sepharose beads incubated with purified, bacterially expressed His-PABP-RRM1–4; western blotting with PABP antibodies or Coomassie staining; also in the absence or presence of 0.5 μg/ml RNase A; details: both partners purified
[2] = target: T1, GST-Pdcd4 (full-length human Pdcd4 …); assay: as above; details: both partners purified

| binding result [1] | binding result [2] | Binder |
| --- | --- | --- |
| binds | – | B1 |
| – | binds | B2 |

Reference: publication PMC4176178, “An evolutionarily conserved interaction of tumor suppressor protein Pdcd4 with the poly(A)-binding protein contributes to translation suppression by Pdcd4” (Nucleic Acids Research, 2014)
